Experimental data taken from US6919086B1, “Graminae pollen allergen mutants for specific immunotherapy, and production and use of the same” (Merck Patent Gesellschaft mit, priority 1997, dated 2005).
Read-outs that look alike come from different tables or passages of the source. Values belong to the molecule of their own block, whether it stands above or below them.

Key:
[1] = biological target: IgE antibodies of the individual allergic patient serum II/3; test: EAST inhibition, individual serum II/3
[2] = biological target: IgE antibodies of the individual allergic patient serum II/12; test: EAST inhibition, individual serum II/12
[3] = tested on: IgE antibodies of allergic patients; test: EAST inhibition test (IgE reactivity / allergenicity); format: binding, human; conditions: for IC50: read-out: Inhibition value 50% (concentration of the inhibitor at 50% inhibition); for Allergenic potency (Prel) 25%: relative to native Phl p 5b at 25% inhibition; for Allergenic potency (Prel) 50%: relative to native Phl p 5b at 50% inhibition; for EAST inhibition curve / inhibitory effect (in words): serum pool Bor 18/100 (20 donors), FIG. 1; for Allergenicity from EAST inhibition curves (in words): serum pool We 6/97 and individual sera II3, II12, II17, FIGS. 2-5
Summary of the method: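 Plates coated with natural or recombinant Ph1 p 5 or Ph1 p 5b (1 μg/ml), BSA-blocked, incubated with allergic patient sera (pool of 10-30 donors or individual) plus soluble allergen mutants as inhibitors. Bound IgE detected by enzyme-coupled anti-IgE; inhibition curves referenced to purified natural Ph1 p 5b.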

[4] = tested on: Phl p 5b-reactive T cell lines (TCLs) from allergic patients; test: Proliferative reaction of Phl p 5b-reactive oligoclonal T cell lines ([3H]-thymidine incorporation); format: cell-based, human; conditions: secondary activator 0.3 μM; for Incorporation of [3H]-thymidine into TCL 5 17.4 (stimulation index class): primary stimulator r Phl p 5; for Incorporation of [3H]-thymidine into TCL 7 19.2 (stimulation index class) / Incorporation of [3H]-thymidine into TCL 8 20.1 (stimulation index class): primary stimulator r Phl p 5b
Summary of the method: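 T cell lines from grass-pollen-allergic patients were raised by repeated stimulation with Phl p 5b allergens. TCL blasts (2×10^4/ml) were cultured with irradiated autologous APCs (5×10^4/ml) and 10-20 μg antigen for 56 h, then given [3H]-thymidine for 16 h. Stimulation index is cpm with antigen over cpm without.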

[5] = tested on: Phl p 5b-reactive T cell clones (TCCs) from allergic patients; test: Proliferative reaction of Phl p 5b-reactive T cell clones ([3H]-thymidine incorporation); format: cell-based, human; conditions: final concentration 0.3 μM
Summary of the method: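 T cell clones from grass-pollen-allergic patients, specific for regions A, B and C, were cultured with irradiated autologous APCs and recombinant Phl p 5b mutants in triplicate. After 56 h, [3H]-thymidine was added and counted after another 16 h. Stimulation index is cpm with antigen over cpm without, with ≥5 rated positive.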

[6] = biological target: IgE antibodies of the allergic patient serum pool Bor 18/100 (20 donors); test: EAST inhibition, serum pool Bor 18/100
[7] = allergic patient serum pool Bor 18/100
[8] = allergic patient serum pool We 6/97
[9] = individual allergic patient serum II/3
[10] = individual allergic patient serum II/12
[11] = individual allergic patient serum II/17

- IC50 [1]: 19 nM
- allergenic potency (Prel) at 25% inhibition (relative to native Phl p 5b) [1]: 0.595
- allergenic potency (Prel) at 50% inhibition (relative to native Phl p 5b) [1]: 0.314
- inhibition value (inhibitor concentration at 25% inhibition) [1]: 8.6e-10 mol/L
- IC50 [2]: 83 nM
- allergenic potency (Prel) at 25% inhibition (relative to native Phl p 5b) [2]: 0.391
- allergenic potency (Prel) at 50% inhibition (relative to native Phl p 5b) [2]: 0.082
- inhibition value (inhibitor concentration at 25% inhibition) [2]: 1.3e-09 mol/L
- IC50 [3, 7]: 12 nM
- IC50 [3, 8]: 120 nM
- IC50 [3, 9]: 19 nM
- IC50 [3, 10]: 83 nM
- IC50 [3, 11]: 2.2 nM
- IC50 [6]: 12 nM
- allergenic potency (Prel) at 25% inhibition (relative to native Phl p 5b) [6]: 0.739
- allergenic potency (Prel) at 50% inhibition (relative to native Phl p 5b) [6]: 0.349
- inhibition value (inhibitor concentration at 25% inhibition) [6]: 4.5e-10 mol/L
B1: rPhl p 5b point mutant PM1 (N32D, D49L, K50A) (protein)
chain: ADAGYAPATPAAAGAAAGKATTEEQKLIEDIDVGFKAAVAAAASVPAALAFKTFEAAFTSSSKAAAAKAPGLVPKLDAAYSVAYKAAVGATPEAKFDSFVASLTEALRVIAGALEVHAVKPVTEEPGMAKIPAGELQIIDKIDAAFKVAATAAATAPADDKFTVFEAAFNKAIKESTGGAYDTYKCIPSLEAAVKQAYAATVAAAPQVKYAVFEAALTKAITAMSEVQKVSQPATGAATVAAGAATTAAGAASGAATVAAGGYKV
- Inhibition value 25% (concentration of the inhibitor at 25% inhibition) [3, 7]: 4.5e-10 mol/L
- Inhibition value 25% (concentration of the inhibitor at 25% inhibition) [3, 8]: 1.2e-09 mol/L
- Inhibition value 25% (concentration of the inhibitor at 25% inhibition) [3, 9]: 8.6e-10 mol/L
- Inhibition value 25% (concentration of the inhibitor at 25% inhibition) [3, 10]: 1.3e-09 mol/L
- Inhibition value 25% (concentration of the inhibitor at 25% inhibition) [3, 11]: 6.4e-10 mol/L
- Allergenic potency (Prel) 25% ([3]; individual serum II/3): 0.5950
- Allergenic potency (Prel) 25% ([3]; individual serum II/12): 0.391
- Allergenic potency (Prel) 25% ([3]; individual serum II/17): 0.336
- Allergenic potency (Prel) 25% ([3]; serum pool Bor 18/100): 0.739
- Allergenic potency (Prel) 25% ([3]; serum pool We 6/97): 0.415
- Allergenic potency (Prel) 50% ([3]; individual serum II/3): 0.3140
- Allergenic potency (Prel) 50% ([3]; individual serum II/12): 0.082
- Allergenic potency (Prel) 50% ([3]; individual serum II/17): 0.1190
- Allergenic potency (Prel) 50% ([3]; serum pool Bor 18/100): 0.3490
- Allergenic potency (Prel) 50% ([3]; serum pool We 6/97): 0.0510
- EAST inhibition curve / inhibitory effect (in words) [3]: exhibits this effect in the higher range to a somewhat greater degree
- Allergenicity from EAST inhibition curves (in words) [3]: either no reduction, or only a reduction which is for the most part slight
- Incorporation of [3H]-thymidine into TCL 1 Wöl (stimulation index class) ([4]; primary stimulator n Phl p 5): + (1-2 (+))
- Incorporation of [3H]-thymidine into TCL 3 Fre (stimulation index class) ([4]; primary stimulator n Phl p 5): + (1-2 (+))
- Incorporation of [3H]-thymidine into TCL 5 17.4 (stimulation index class) [4]: + (1-2 (+))
- Incorporation of [3H]-thymidine into TCL 6 Mah (stimulation index class) ([4]; primary stimulator r Phl p 5a, r Phl p 5b): ++ (5-10 (++))
- Incorporation of [3H]-thymidine into TCL 7 19.2 (stimulation index class) [4]: +++ (>10 (+++))
- Incorporation of [3H]-thymidine into TCL 8 20.1 (stimulation index class) [4]: +++ (>10 (+++))
- Incorporation of [3H]-thymidine into TCC CB 2 (stimulation index class) ([5]; T cell-reactive region A): +++ (>10 (+++))
- Incorporation of [3H]-thymidine into TCC CB 14 (stimulation index class) ([5]; T cell-reactive region A): +++ (>10 (+++))
- Incorporation of [3H]-thymidine into TCC JR 13 (stimulation index class) ([5]; T cell-reactive region A): +++ (>10 (+++))
- Incorporation of [3H]-thymidine into TCC JR 15 (stimulation index class) ([5]; T cell-reactive region A): ++ (5-10 (++))
- Incorporation of [3H]-thymidine into TCC DW8 (stimulation index class) ([5]; T cell-reactive region B): + (1-2 (+))
- Incorporation of [3H]-thymidine into TCC UZH2 (stimulation index class) ([5]; T cell-reactive region B): +++ (>10 (+++))
- Incorporation of [3H]-thymidine, stimulation index SI, 3rd exp. ([5]; T cell-reactive region C): 1.1
- Incorporation of [3H]-thymidine, stimulation index class (last column, no head) ([5]; T cell-reactive region C): − (<1 (−))

- IC50 [1]: 15 nM
- allergenic potency (Prel) at 25% inhibition (relative to native Phl p 5b) [1]: 0.922
- allergenic potency (Prel) at 50% inhibition (relative to native Phl p 5b) [1]: 0.399
- inhibition value (inhibitor concentration at 25% inhibition) [1]: 5.5e-10 mol/L
- IC50 [2]: 91 nM
- allergenic potency (Prel) at 25% inhibition (relative to native Phl p 5b) [2]: 0.389
- allergenic potency (Prel) at 50% inhibition (relative to native Phl p 5b) [2]: 0.075
- inhibition value (inhibitor concentration at 25% inhibition) [2]: 1.3e-09 mol/L
- IC50 [3, 7]: 4.8 nM
- IC50 [3, 8]: 30 nM
- IC50 [3, 9]: 15 nM
- IC50 [3, 10]: 91 nM
- IC50 [3, 11]: 5.5 nM
- IC50 [6]: 4.8 nM
- allergenic potency (Prel) at 25% inhibition (relative to native Phl p 5b) [6]: 1.64
- allergenic potency (Prel) at 50% inhibition (relative to native Phl p 5b) [6]: 0.864
- inhibition value (inhibitor concentration at 25% inhibition) [6]: 2e-10 mol/L
B2: rPhl p 5b point mutant PM3 (A13C) (protein)
chain: ADAGYAPATPAACGAAAGKATTEEQKLIEDINVGFKAAVAAAASVPAADKFKTFEAAFTSSSKAAAAKAPGLVPKLDAAYSVAYKAAVGATPEAKFDSFVASLTEALRVIAGALEVHAVKPVTEEPGMAKIPAGELQIIDKIDAAFKVAATAAATAPADDKFTVFEAAFNKAIKESTGGAYDTYKCIPSLEAAVKQAYAATVAAAPQVKYAVFEAALTKAITAMSEVQKVSQPATGAATVAAGAATTAAGAASGAATVAAGGYKV
- Inhibition value 25% (concentration of the inhibitor at 25% inhibition) [3, 7]: 2e-10 mol/L
- Inhibition value 25% (concentration of the inhibitor at 25% inhibition) [3, 8]: 8.3e-10 mol/L
- Inhibition value 25% (concentration of the inhibitor at 25% inhibition) [3, 9]: 5.5e-10 mol/L
- Inhibition value 25% (concentration of the inhibitor at 25% inhibition) [3, 10]: 1.3e-09 mol/L
- Inhibition value 25% (concentration of the inhibitor at 25% inhibition) [3, 11]: 2.5e-10 mol/L
- Allergenic potency (Prel) 25% ([3]; individual serum II/3): 0.9220
- Allergenic potency (Prel) 25% ([3]; individual serum II/12): 0.389
- Allergenic potency (Prel) 25% ([3]; individual serum II/17): 0.855
- Allergenic potency (Prel) 25% ([3]; serum pool Bor 18/100): 1.641
- Allergenic potency (Prel) 25% ([3]; serum pool We 6/97): 0.611
- Allergenic potency (Prel) 50% ([3]; individual serum II/3): 0.3990
- Allergenic potency (Prel) 50% ([3]; individual serum II/12): 0.075
- Allergenic potency (Prel) 50% ([3]; individual serum II/17): 0.4680
- Allergenic potency (Prel) 50% ([3]; serum pool Bor 18/100): 0.8640
- Allergenic potency (Prel) 50% ([3]; serum pool We 6/97): 0.2030
- EAST inhibition curve / inhibitory effect (in words) [3]: binding curves which are similar to that obtained with natural Ph1 p 5b
- Allergenicity from EAST inhibition curves (in words) [3]: either no reduction, or only a reduction which is for the most part slight
- Incorporation of [3H]-thymidine into TCL 3 Fre (stimulation index class) ([4]; primary stimulator n Phl p 5): + (1-2 (+))
- Incorporation of [3H]-thymidine into TCL 4 Mer (stimulation index class) ([4]; primary stimulator n Phl p 5): + (1-2 (+))
- Incorporation of [3H]-thymidine into TCL 5 17.4 (stimulation index class) [4]: + (1-2 (+))
- Incorporation of [3H]-thymidine into TCL 7 19.2 (stimulation index class) [4]: +++ (>10 (+++))
- Incorporation of [3H]-thymidine into TCL 8 20.1 (stimulation index class) [4]: + (1-2 (+))
- Incorporation of [3H]-thymidine into TCC CB 2 (stimulation index class) ([5]; T cell-reactive region A): +++ (>10 (+++))
- Incorporation of [3H]-thymidine into TCC JR 13 (stimulation index class) ([5]; T cell-reactive region A): +++ (>10 (+++))
- Incorporation of [3H]-thymidine into TCC UZH2 (stimulation index class) ([5]; T cell-reactive region B): +++ (>10 (+++))
- Incorporation of [3H]-thymidine, stimulation index SI, 1st exp. ([5]; T cell-reactive region C): 7.4
- Incorporation of [3H]-thymidine, stimulation index SI, 2nd exp. ([5]; T cell-reactive region C): 5.9
- Incorporation of [3H]-thymidine, stimulation index SI, 3rd exp. ([5]; T cell-reactive region C): 4.5
- Incorporation of [3H]-thymidine, stimulation index class (last column, no head) ([5]; T cell-reactive region C): ++ (5-10 (++))
